Data from US20130224224A1 (Boehringer Ingelheim, published 2013).
Numbering of substitutions follows the chain as printed. In names and notes the source's numbering stands. Where two headings read alike, the source gives them in different places.

B1: 66B02-mFc (Fc fusion)
chain: EVQLVESGGGSVQAGESLRLSCAASGSIFSSNAMAWYRQAPGKRRDLVAAINSVGVTKYADSVKGRFTISRDNAKNTVYLQMNSLKPEDTAVYYCTSDPRRGWDTRYWGQGTLVTVSSGGGGSGGGGSGGGGSPPCKCPAPNLLGGPSVFIFPPKIKDVLMISLSPIVTCVVVAVSEDDPDVQISWFVNNVEVHTAQTQTHREDYNSTLRVVSALPIQHQDWMSGKEFKCKVNNKDLPAPIERTISKPKGSVRAPQVYVLPPPEEEMTKKQVTLTCMVTDFMPEDIYVEWTNNGKTELNYKNTEPVLDSDGSYFMYSKLRVEKKNWVERNSYSCSVVHEGLHNHHTTKSFSRTPGK
notes: 66B02 VHH fused to a mouse IgG2 Fc domain with D265A in CH2; expressed in HEK293T or NS0 cells; dimer form is told only as an aspect
B2: CX3CR1BII026 (VHH)
chain: EVQLVESGGGLVQAGGSLRLSCVASGRTFSSYAMGWFRQAPGKERAFVAGISGSASRKYYADSVKGRFTVSRDNARNTVYLQMNSLKPEDTAVYYCAASNSYPKVQFDYYGQGTQVTVSSGGGGSGGGGSGGGGSGGGGSGGGGSGGGGSGGGGSEVQLVESGGGSVQAGESLRLSCAASGSIFSSNAMAWYRQAPGKRRDLVAAINSVGVTKYADSVKGRFTISRDNAKNTVYLQMNSLKPEDTAVYYCTSDPRRGWDTRYWGQGTQVTVSS
notes: expressed in E. coli as described for the monovalent VHHs
B3: CX3CR1BII027 (VHH)
chain: B2 chain with R199Q, A205G, V211I, V233A, Q268L
notes: as for B2
B4: 306D-hFc (Fc fusion)
chain: DVQLVESGGGLVQPGGSLRLSCAASGSIFSSTAMAWYRQAPGKRRDLVAAISSVGVTKYADSVKGRFTISRDNSKNTVYLQMNSLRPEDTAVYYCTSDPRRGWDTRYWGQGTLVTVSSGGGGSGGGGSGGGGSCPPCPAPEAAGGPSVFLFPPKPKDTLMISRTPEVTCVVVDVSHEDPEVKFNWYVDGVEVHNAKTKPREEQYNSTYRVVSVLTVLHQDWLNGKEYKCKVSNKALPAPIEKTISKAKGQPREPQVYTLPPSREEMTKNQVSLTCLVKGFYPSDIAVEWESNGQPENNYKTTPPVLDSDGSFFLYSKLTVDKSRWQQGNVFSCSVMHEALHNHYTQKSLSLSPGK
notes: CX3CR1BII00306 fused to a human IgG1 Fc domain with two mutations in CH2; expressed in HEK293T or NS0 cells
B5: 307D-hFc (Fc fusion)
chain: B4 chain with S53T
notes: CX3CR1BII00307 fused to a human IgG1 Fc domain with two mutations in CH2; expressed in HEK293T or NS0 cells
B6: CX3CR1BII012 (VHH)
chain: EVQLVESGGGSVQAGGSLRLSCAASGSIFSSNAMAWYRQAPGKQRDLVAGINSVGITKYADSVKGRFTISRDNAKNTVYLQMNSLKPEDTAVYYCTSDPRRGWDTRYWGQGTLVTVSSGGGGSGGGGSGGGGSGGGGSGGGGSGGGGSGGGGSKVQLVESGGGLVQPGGSLRLSCATSGTIFSNNAMGWYRQAPGKKRDLVASISSSGSTNYADSVKGRFTVSRDNDKNTGYLQMNSLKPEDTGVYYCTLDARRGWNTAYWGQGAQVTVSS
notes: as for B2

Key:
[1] = target: T1, human CX3CR1 (human, UniProt P49238 1-355); assay: cell-based or functional assay
T1 sequence: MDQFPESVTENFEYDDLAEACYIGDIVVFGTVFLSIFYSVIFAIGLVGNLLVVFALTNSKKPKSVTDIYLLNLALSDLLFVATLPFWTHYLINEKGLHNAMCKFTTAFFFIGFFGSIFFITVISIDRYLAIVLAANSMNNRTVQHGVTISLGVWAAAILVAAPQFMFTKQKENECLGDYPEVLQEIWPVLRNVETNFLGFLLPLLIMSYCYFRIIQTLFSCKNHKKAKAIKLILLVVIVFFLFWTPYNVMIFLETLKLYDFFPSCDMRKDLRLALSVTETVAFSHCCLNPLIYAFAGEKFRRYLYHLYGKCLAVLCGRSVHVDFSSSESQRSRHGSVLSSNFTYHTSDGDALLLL

[2] = target: T1, human CX3CR1; assay: A647-fractalkine competition FACS, BA/F3-huCX3CR1
[3] = target: T1, human CX3CR1; assay: cell-based or functional assay; remark: listed apart in the source
[4] = target: T1, human CX3CR1; assay: A647-fractalkine competition FACS, BA/F3-huCX3CR1; remark: listed apart in the source
[5] = target: T1, human CX3CR1; assay: cell-based or functional assay; remark: listed apart in the source
[6] = target: T1, human CX3CR1; assay: A647-fractalkine competition FACS, BA/F3-huCX3CR1; remark: listed apart in the source
[7] = target: T1, human CX3CR1; assay: FACS binding, HEK293T human CX3CR1
[8] = target: T2, cynomolgus CX3CR1 (cynomolgus, UniProt P49238 1-355 (human entry)); assay: FACS binding, HEK293T cynomolgus CX3CR1
T2 construct: transiently expressed on HEK293T cells; also called cyCX3CR1; cyno CX3CR1
T2 chain: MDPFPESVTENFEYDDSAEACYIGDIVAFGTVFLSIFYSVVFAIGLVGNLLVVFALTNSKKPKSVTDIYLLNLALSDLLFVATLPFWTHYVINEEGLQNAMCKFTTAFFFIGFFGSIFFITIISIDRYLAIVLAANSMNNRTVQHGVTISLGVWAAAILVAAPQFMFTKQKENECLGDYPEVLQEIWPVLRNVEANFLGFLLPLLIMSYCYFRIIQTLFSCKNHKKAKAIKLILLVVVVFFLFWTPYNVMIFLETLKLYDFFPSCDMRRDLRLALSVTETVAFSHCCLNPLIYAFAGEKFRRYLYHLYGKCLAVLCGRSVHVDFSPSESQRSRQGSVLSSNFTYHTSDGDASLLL

[9] = target: T2, cynomolgus CX3CR1; assay: FACS binding, cynomolgus against human CX3CR1
[10] = target: T1, human CX3CR1; assay: A647-fractalkine competition FACS, CHO-huCX3CR1
Source text: Periplasmic extracts were screened in a human CX3CR1/human Fractalkine FACS competition assay to assess the blocking capacity of the expressed VHHs. Human CX3CR1 was presented on CHO cells overexpressing CX3CR1. Both a setup using cells harvested from an actively growing culture and a setup using frozen cells was used. As a detection reagent labeled fractalkine was used (R&D Systems, Minneapolis, Minn., USA) labeled with alexa647 (A647-Fractalkine) at a degree of labeling of 1. To setup the assay, first a titration series of the labeled fractalkine was performed on the CHO-huCX3CR1 cells in order to determine the EC50 value for binding. Initially screening was performed at a higher concentration of fractalkine (3 nM) to increase the assay robustness. To increase the sensitivity of the screening to a maximum, the EC30 concentration (1 nM) was chosen for subsequent screening. In brief 50 μl of periplasmic extract was added to 6 nM labeled fractalkine (50 μ;) and 200 000 CHO-huCX3CR1 cells. After one hour incubation at 4 C, cells were washed three times before read out was performed on a FACS Array (Becton Dickinson). First a gate was set on the intact cells as determined from the scatter profile. Next, dead cells were gated out by their fluorescence profile from the PI stain (Sigma, St Louis, US). The fluorescence profile from the alexa647 label was determined for each sample and used for calculation of blocking capacity. As controls, conditions were taken along where there was no VHH present in the peri extract or a known irrelevant VHH and samples were included where excess cold fractalkine was included. For each sample the percentage block was determined using the control samples to determine the assay window.
The inhibition of ligand binding to human CX3CR1 was investigated for the different formats as described in Example 4. For this characterization the BA/F3-huCX3CR1 cell line was used showing stable expression of the human CX3CR1 receptor. The alexa647 labeled ligand fractalkine was used at its EC30 concentration and thereby obtained IC50 values are reflective of the Ki values.

Binder | % block, fractalkine induced chemotaxis [3] [%] | IC50, fractalkine induced chemotaxis [3] [nM] | IC50 [4] [nM] | IC50, Calcium influx [5] [nM] | IC50, Chemotaxis [5] [nM] | IC50, Ligand internalization [5] [nM] | IC50 [6] [nM] | also measured
B1 |  |  |  |  |  |  |  | IC50, Calcium influx [1]: 0.98 nM; IC50, Chemotaxis [1]: 0.89 nM; IC50, Ligand internalization [1]: 0.52 nM; IC50 [2]: 0.57 nM
B2 | 98 | 0.3 | 0.7 |  |  |  |  | 
B3 | 98 | 0.9 | 0.67 |  |  |  |  | 
B4 |  |  |  | 1.3 | 2.9 | 0.48 | 0.69 | 
B5 |  |  |  | 3.2 | 3 | 0.37 | 0.7 | 
B6 | 78 | 4 |  |  |  |  |  | EC50 [7]: 0.056 nM; EC50 [8]: 0.063 nM; ratio (cynomolgus/human EC50) [9]: 1.1; % block [10]: 93%; IC50 [10]: 0.8 nM
